# Measurements as given in publication PMC6639382, “Structural mechanism of synergistic activation of Aurora kinase B/C by phosphorylated INCENP” (Nature Communications, 2019).
# T1: Aurora kinase C kinase domain (truncation not stated for this experiment), phosphorylated (human)
# T1 sequence (Q9UQB9 whole entry, looked up): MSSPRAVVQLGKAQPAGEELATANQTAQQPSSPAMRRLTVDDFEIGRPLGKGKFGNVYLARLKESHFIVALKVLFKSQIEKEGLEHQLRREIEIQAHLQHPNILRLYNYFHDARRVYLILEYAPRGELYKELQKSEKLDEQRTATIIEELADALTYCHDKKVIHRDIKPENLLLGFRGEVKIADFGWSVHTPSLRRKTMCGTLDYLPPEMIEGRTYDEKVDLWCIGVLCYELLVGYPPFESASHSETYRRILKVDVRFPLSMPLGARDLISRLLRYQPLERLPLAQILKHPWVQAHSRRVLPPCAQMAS
# T2: Aurora kinase A (AURKA) (Homo sapiens, UniProt O14965)
# T2 construct: residues 122–403
# T2 sequence (O14965 122-403): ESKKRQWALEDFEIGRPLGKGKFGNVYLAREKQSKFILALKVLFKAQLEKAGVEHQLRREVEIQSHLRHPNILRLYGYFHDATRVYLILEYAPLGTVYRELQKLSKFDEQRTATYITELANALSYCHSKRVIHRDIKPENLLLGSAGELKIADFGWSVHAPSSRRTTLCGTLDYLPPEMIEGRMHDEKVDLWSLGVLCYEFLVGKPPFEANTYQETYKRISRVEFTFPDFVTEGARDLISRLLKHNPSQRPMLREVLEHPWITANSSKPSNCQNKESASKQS
# T3: Aurora kinase C kinase domain (truncation not stated for this experiment), phosphorylated
# T3 chain: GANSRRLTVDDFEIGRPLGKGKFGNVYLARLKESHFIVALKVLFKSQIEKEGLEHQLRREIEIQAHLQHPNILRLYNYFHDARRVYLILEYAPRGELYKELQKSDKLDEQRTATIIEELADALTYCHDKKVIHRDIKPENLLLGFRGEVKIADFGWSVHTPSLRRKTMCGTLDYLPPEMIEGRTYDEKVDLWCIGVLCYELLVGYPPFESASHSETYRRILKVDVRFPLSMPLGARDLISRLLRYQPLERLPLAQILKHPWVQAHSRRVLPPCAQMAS
# B1: INCENP IN-box (residues 835–903), phosphorylated on the TSS motif, Q9NQS7-1 S893A; S894A; W897A (protein)
# chain: MEAHPRKPIPTWARGTPLSQAIIHQYYHPPNLLELFGTILPLDLEDIFKKSKPRYHKRTAAAVANSPPLQ
# Tests used:
# [1] = target: T1, Aurora kinase C kinase domain (truncation not stated for this experiment), phosphorylated (human)
# Aurora kinase B (AURKB) = target: T4, Aurora kinase B (AURKB) (Homo sapiens, UniProt Q96GD4); assay: isothermal titration calorimetry; BLI kinetics (slow off-rate); type: binding
# T4 construct: kinase domain co-expressed with INCENP residues 835–903; with INCENP (residues 835–903)
# Aurora kinase C (AURKC) = target: T5, Aurora kinase C (AURKC) (Homo sapiens, UniProt Q9UQB9); assay: co-crystal structure ([…] Å); type: binding
# T5 construct: residues 36–305 of AURKC isoform 1; with INCENP (residues 835–903, phosphorylated on Ser893 and Ser894)
# Aurora kinase A (AURKA) = target: T2, Aurora kinase A (AURKA); assay: crystal structure ([…] Å) and isothermal titration calorimetry; type: binding
# [2] = target: T1, Aurora kinase C kinase domain (truncation not stated for this experiment), phosphorylated (human); assay: native MS; native nano-ESI ion mobility-mass spectrometry of the co-purified complexes, 250 mM ammonium acetate, ca. 10 µM, gentle ionisation conditions
# [3] = target: T3, Aurora kinase C kinase domain …; assay: native mass spectrometry (native ESI-MS); settings: chain shown with the change; concentration of ca. 10 µM; same gentle ionisation conditions; parent: 0
# T5 sequence (Q9NQS7 835-903 partner, one chain of several): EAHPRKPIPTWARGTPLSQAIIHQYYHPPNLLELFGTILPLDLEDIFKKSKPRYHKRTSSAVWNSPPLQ
# T4 sequence (Q96GD4 77-327 limits assumed): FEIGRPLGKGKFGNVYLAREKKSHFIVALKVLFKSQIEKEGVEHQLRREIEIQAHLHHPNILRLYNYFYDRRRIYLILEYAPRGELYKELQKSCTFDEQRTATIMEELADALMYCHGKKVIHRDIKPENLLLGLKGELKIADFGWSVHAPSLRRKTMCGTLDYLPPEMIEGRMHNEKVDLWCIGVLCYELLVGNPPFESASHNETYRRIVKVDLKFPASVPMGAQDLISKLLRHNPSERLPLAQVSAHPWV
# T4 sequence (Q9NQS7 835-903 partner): as the sequence (Q9NQS7 835-903 partner, one chain of several) above
Molecule,Kcat of the AURKC:INCENP complex on a peptide substrate [1],Km(peptide) of the AURKC:INCENP complex [1] [µM],further results
INCENP IN-box (residues 835–903) S893A (from UniProt Q9NQS7-1 835-903) (domain or fragment),46300,83,–
COc1ccc(NC(=O)Nc2ccc3c(c2)C(=O)N([C@@H](C)CO)C[C@H](C)[C@H](CN(C)Cc2ccc4c(c2)OCO4)O3)cc1 [BRD-7880],–,–,Kd (Aurora kinase B (AURKB)): 16 nM; co-crystal structure (1.75 Å) (Aurora kinase C (AURKC)): The co-crystal structure with AURKC:INCENP reveals a completely ordered BRD-7880 molecule (Fig. 5a) which binds in the ATP-binding site; Kd (Aurora kinase A (AURKA)): 341 nM
INCENP IN-box (residues 835–903) W897A (from UniProt Q9NQS7-1 835-903) (domain or fragment),41800,25.1,–
INCENP IN-box (residues 835–903) S894A (from UniProt Q9NQS7-1 835-903) (domain or fragment),38800 s⁻¹,83,–
"INCENP IN-box (residues 835–903), phosphorylated on the TSS motif (from UniProt Q9NQS7-1 835-903) (domain or fragment)",48800,18.7,% complex formed [2]: 100%
B1,–,–,other: % unbound AURKC (% unbound AURKC) [3]: 40
